From PMC4656083 (Chemistry & biology, 2015) come the findings set out here.

Holding throughout (experiment): cross-linking
Test [1] deals with AcpP (acyl carrier protein) loaded with crosslinking probe DH10 (E. coli) (UniProt P0A6A8).
Test [2] concerns the target AcpP (acyl carrier protein) loaded with crosslinking probe DH10X (E. coli) (UniProt P0A6A8).
Test [3] deals with AcpP (acyl carrier protein) loaded with crosslinking probe DH6 (E. coli) (UniProt P0A6A8).
Test [4] addresses AcpP (acyl carrier protein) loaded with crosslinking probe DH8 (E. coli) (UniProt P0A6A8).
The target in test [5] is T1, FabA, β-hydroxyacyl-AcpP dehydratase (wild type) (E. coli, UniProt P0A6Q3 2-172).
T1 sequence: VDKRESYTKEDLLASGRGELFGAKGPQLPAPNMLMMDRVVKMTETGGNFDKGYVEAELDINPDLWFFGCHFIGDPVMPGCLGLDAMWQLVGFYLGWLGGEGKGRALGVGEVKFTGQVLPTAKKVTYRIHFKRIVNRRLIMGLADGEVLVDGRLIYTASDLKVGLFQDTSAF

As for FabA F92A (enzyme), the crosslinking efficiency relative to WT FabA in test [1], in test [2], in test [3] and in test [4] was more than 50% in each case.
Regarding FabA F165A (enzyme), the crosslinking efficiency relative to FabA WT in test [1] and in test [2] was 50% in each case.
As for FabA F171A (enzyme), the crosslinking efficiency relative to FabA WT in test [1] and in test [2] was 50% throughout.
Turning to FabA L94A (enzyme), the crosslinking efficiency relative to WT FabA in test [1], in test [2], in test [3] and in test [4] was more than 50% throughout.
As for FabA L164A (enzyme), the crosslinking efficiency relative to WT FabA in test [1], in test [2], in test [3] and in test [4] was more than 50% in each case.
For the molecule FabA R137E (enzyme), the percent complex formation (crosslinking) in test [1], in test [2], in test [3] and in test [4] was less than 50% each time.

B1: AcpP (acyl carrier protein) loaded with crosslinking probe DH10 (natural protein, E. coli)
chain: STIEERVKKIIGEQLGVKQEEVTNNASFVEDLGADSLDTVELVMALEEEFDTEIPDEEAEKITTVQAAIDYINGHQA
modifications: S36 carries the phosphopantetheine analogue of probe DH10 (sulfonyl-3-alkyne warhead, mimics a C10 acyl chain)
As for B1, in test [5], the binding result is recorded as “binds”.
